First the molecules themselves.
T1: mouse CNTN4 overexpressed on 293F cells (mouse, UniProt Q69Z26 19-1000)
T1 construct: whole, on cells; Overexpressed on 293F cells; the construct is not described; also called Mouse CNTN4 cell; mouse antigen-overexpressing 293F cells
T1 sequence (looked up): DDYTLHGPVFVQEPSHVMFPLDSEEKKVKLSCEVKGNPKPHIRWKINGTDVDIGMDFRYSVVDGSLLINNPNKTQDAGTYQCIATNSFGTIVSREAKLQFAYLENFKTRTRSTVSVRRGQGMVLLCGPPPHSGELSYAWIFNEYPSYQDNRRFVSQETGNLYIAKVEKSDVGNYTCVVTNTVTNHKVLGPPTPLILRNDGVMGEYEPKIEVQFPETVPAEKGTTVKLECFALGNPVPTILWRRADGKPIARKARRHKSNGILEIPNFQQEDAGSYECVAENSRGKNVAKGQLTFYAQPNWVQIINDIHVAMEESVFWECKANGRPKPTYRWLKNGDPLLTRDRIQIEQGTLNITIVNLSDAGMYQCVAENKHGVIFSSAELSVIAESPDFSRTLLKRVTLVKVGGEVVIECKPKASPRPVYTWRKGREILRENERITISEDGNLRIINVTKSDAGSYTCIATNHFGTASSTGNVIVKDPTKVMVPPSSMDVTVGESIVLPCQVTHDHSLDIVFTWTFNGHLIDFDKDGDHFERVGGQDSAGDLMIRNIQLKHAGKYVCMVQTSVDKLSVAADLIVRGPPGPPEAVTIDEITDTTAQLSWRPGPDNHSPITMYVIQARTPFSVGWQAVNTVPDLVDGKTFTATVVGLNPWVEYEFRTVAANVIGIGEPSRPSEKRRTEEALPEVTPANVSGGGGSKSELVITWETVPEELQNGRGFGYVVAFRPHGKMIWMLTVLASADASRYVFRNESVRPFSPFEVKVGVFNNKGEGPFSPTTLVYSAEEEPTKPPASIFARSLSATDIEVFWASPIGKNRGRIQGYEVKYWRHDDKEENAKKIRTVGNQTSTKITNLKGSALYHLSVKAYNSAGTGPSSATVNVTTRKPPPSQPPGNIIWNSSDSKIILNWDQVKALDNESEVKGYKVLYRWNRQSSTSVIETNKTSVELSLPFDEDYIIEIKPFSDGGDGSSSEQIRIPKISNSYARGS

T2: human CNTN4 overexpressed on cells (human, UniProt Q8IWV2 19-1000)
T2 construct: whole, on cells; the construct is not described; also called human CNTN4 cell; human CNTN4-overexpressing 293F cells
T2 sequence (looked up): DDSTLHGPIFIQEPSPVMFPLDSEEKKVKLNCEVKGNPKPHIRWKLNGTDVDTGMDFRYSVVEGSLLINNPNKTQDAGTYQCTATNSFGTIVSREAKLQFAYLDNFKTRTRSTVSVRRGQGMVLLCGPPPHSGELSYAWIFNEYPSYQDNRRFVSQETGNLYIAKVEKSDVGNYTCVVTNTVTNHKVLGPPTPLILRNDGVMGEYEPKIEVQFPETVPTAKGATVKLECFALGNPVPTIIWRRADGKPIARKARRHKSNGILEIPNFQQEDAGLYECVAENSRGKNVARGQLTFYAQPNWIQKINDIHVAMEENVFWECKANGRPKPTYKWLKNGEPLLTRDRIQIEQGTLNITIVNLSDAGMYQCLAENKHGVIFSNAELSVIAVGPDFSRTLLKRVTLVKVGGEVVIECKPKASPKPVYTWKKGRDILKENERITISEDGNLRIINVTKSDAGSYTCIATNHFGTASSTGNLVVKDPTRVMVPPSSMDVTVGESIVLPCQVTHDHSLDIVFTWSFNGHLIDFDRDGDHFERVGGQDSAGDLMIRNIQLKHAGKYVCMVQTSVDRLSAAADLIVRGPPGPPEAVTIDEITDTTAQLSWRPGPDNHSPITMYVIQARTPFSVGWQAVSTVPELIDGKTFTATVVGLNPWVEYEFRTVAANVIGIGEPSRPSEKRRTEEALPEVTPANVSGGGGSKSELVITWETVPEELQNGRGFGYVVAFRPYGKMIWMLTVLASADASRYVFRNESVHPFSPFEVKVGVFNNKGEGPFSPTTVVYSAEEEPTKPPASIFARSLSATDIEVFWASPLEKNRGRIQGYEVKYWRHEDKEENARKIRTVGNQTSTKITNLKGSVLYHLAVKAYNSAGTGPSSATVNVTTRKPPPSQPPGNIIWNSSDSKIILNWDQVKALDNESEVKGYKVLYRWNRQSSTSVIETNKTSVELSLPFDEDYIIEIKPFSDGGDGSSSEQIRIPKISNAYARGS

B1: A101 scFv (scFv, V domains shown)
VH: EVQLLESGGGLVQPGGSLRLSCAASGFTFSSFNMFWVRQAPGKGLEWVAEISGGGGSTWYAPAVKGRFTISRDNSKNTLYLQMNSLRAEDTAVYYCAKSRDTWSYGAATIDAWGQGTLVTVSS
VL: ELTQDPAVSVALGQTVRITCSGSSGSYGWYQQKPGQAPVLVIYDNTNRPSGIPDRFSGSSSGNTASLTITGAQAEDEADYYCGGYDGSTDVFGGGTKLTVL
B2: A114 scFv (scFv, V domains shown)
VH: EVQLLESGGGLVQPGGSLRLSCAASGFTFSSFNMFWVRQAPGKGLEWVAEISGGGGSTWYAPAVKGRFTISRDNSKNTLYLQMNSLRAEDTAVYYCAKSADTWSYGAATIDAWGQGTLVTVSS
VL: B1 VL with D86W
B3: A103 scFv (scFv, V domains shown)
VH: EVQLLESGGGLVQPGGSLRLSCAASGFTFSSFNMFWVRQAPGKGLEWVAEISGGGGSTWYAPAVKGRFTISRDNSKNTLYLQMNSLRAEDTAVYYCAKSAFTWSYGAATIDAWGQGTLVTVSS
VL: B1 VL
B4: A105 scFv (scFv, V domains shown)
VH: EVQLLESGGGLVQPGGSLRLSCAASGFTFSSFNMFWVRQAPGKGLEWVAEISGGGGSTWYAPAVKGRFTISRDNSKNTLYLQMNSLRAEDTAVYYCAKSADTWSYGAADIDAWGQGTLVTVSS
VL: B1 VL
B5: A113 scFv (scFv, V domains shown)
VH: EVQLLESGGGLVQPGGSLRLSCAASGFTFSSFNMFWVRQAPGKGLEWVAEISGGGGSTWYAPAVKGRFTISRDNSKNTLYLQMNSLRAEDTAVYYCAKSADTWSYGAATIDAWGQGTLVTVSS
VL: B1 VL with D86R
B6: A109 scFv (scFv, V domains shown)
VH: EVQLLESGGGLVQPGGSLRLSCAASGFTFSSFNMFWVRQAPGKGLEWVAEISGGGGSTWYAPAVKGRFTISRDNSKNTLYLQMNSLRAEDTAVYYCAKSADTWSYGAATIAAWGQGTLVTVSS
VL: B1 VL
B7: A112 scFv (scFv, V domains shown)
VH: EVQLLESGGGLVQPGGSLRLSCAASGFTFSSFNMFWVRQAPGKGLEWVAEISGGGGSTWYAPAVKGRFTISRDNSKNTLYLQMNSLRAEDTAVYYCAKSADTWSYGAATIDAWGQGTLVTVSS
VL: B1 VL with S23R
B8: A106 scFv (scFv, V domains shown)
VH: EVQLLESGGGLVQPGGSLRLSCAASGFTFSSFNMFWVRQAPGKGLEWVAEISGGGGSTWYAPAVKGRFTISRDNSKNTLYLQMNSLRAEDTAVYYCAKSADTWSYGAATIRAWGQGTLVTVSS
VL: B1 VL
B9: A107 scFv (scFv, V domains shown)
VH: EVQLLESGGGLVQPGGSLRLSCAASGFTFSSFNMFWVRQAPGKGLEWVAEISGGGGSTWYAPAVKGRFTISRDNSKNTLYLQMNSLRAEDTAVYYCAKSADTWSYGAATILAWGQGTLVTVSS
VL: B1 VL
B10: A102 scFv (scFv, V domains shown)
VH: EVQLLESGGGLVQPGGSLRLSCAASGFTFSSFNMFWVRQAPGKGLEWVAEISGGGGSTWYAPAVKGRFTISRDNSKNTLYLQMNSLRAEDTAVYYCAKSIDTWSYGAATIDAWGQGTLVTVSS
VL: B1 VL
B11: A110 scFv (scFv, V domains shown)
VH: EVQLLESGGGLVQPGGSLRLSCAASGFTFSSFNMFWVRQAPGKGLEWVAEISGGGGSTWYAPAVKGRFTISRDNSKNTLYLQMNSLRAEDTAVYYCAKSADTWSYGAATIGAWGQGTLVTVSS
VL: B1 VL
B12: A108 scFv (scFv, V domains shown)
VH: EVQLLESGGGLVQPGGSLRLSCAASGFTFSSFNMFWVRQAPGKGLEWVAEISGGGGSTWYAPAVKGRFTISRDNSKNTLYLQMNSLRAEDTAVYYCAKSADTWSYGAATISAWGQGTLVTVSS
VL: B1 VL
B13: A111 scFv (scFv, V domains shown)
VH: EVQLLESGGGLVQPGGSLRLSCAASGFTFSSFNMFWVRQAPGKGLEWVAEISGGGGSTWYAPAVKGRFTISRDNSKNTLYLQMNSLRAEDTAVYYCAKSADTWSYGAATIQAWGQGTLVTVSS
VL: B1 VL
B14: A214 scFv (scFv, V domains shown)
VH: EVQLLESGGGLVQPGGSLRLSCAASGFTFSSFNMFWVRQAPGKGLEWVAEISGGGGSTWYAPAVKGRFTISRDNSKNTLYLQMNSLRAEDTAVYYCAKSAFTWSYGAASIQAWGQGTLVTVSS
VL: B1 VL with D86W
B15: A208 scFv (scFv, V domains shown)
VH: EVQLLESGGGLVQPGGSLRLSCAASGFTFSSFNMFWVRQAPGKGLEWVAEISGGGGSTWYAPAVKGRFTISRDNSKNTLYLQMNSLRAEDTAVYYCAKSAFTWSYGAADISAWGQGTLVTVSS
VL: B1 VL with D86W
B16: A201 scFv (scFv, V domains shown)
VH: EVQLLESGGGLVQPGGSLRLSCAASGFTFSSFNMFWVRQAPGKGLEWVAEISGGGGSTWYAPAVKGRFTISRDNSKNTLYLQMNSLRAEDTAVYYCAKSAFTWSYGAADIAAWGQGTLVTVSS
VL: B1 VL with S23R, D86W
B17: A203 scFv (scFv, V domains shown)
VH: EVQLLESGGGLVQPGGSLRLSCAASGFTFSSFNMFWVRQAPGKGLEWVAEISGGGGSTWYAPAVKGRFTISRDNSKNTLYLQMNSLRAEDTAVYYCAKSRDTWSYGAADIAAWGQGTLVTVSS
VL: B1 VL with S23R, D86W
B18: A216 scFv (scFv, V domains shown)
VH: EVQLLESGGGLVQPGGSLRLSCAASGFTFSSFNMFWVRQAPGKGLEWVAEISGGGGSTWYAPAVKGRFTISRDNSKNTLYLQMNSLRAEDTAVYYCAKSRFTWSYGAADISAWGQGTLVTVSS
VL: B1 VL with S23R, D86W
B19: A213 scFv (scFv, V domains shown)
VH: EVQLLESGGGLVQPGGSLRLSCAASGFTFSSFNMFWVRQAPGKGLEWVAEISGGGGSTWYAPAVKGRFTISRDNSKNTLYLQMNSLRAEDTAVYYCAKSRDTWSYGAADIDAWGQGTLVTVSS
VL: B1 VL with D86W
B20: A219 scFv (scFv, V domains shown)
VH: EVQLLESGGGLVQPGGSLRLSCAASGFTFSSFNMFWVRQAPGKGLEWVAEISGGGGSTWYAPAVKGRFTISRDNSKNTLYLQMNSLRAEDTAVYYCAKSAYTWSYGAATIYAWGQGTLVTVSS
VL: B1 VL with D86W
B21: A218 scFv (scFv, V domains shown)
VH: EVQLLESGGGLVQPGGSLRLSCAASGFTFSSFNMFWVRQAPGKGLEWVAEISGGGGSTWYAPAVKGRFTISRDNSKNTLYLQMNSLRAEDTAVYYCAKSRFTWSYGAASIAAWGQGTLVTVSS
VL: B1 VL with S23R, D86W
B22: A202 scFv (scFv, V domains shown)
VH: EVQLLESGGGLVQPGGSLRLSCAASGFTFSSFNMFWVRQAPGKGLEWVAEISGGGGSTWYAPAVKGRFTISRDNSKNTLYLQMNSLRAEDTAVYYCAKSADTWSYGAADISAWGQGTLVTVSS
VL: B1 VL with S23R, D86W
B23: A205 scFv (scFv, V domains shown)
VH: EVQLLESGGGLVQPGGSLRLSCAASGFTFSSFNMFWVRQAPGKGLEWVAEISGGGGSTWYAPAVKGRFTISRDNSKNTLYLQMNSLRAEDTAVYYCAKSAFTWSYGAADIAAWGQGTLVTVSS
VL: B1 VL with D86W
B24: A206 scFv (scFv, V domains shown)
VH: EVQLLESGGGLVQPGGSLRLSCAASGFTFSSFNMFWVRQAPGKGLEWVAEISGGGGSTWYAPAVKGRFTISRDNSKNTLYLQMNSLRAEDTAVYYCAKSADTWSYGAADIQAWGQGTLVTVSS
VL: B1 VL with S23R, D86W
B25: A211 scFv (scFv, V domains shown)
VH: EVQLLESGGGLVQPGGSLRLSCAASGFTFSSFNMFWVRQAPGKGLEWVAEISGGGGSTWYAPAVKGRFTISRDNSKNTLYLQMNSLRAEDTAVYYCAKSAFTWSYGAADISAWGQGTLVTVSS
VL: B1 VL with S23R, D86W
B26: A215 scFv (scFv, V domains shown)
VH: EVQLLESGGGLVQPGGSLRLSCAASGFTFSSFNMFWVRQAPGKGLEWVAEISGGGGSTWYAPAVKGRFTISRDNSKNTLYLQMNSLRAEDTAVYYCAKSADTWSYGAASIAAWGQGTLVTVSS
VL: B1 VL with D86W
B27: A210 scFv (scFv, V domains shown)
VH: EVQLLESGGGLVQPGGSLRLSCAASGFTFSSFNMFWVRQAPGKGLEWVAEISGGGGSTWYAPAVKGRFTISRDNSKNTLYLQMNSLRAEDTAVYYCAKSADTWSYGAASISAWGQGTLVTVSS
VL: B1 VL with S23R, D86W
B28: A217 scFv (scFv, V domains shown)
VH: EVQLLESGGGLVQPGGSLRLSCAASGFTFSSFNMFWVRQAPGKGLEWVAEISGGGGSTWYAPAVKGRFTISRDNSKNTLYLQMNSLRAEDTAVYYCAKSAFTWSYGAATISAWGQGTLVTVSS
VL: B1 VL with D86W
B29: A212 scFv (scFv, V domains shown)
VH: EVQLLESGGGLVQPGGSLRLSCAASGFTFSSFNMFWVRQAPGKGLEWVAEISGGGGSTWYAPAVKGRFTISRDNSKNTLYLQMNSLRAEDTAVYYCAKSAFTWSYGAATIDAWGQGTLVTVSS
VL: B1 VL with S23R, D86W
B30: A207 scFv (scFv, V domains shown)
VH: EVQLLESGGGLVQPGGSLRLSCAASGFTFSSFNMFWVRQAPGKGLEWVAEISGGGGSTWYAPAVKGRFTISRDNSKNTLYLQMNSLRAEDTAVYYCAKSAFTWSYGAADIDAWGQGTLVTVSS
VL: B1 VL with D86W
B31: A209 scFv (scFv, V domains shown)
VH: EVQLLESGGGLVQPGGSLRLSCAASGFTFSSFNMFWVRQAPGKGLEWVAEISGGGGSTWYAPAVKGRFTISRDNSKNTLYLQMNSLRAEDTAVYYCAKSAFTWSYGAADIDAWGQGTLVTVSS
VL: B1 VL with S23R, D86W
B32: A204 scFv (scFv, V domains shown)
VH: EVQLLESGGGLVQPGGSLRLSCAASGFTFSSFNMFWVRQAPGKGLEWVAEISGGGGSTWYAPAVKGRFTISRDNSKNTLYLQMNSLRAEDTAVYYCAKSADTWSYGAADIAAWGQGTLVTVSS
VL: B1 VL with S23R, D86W

Numbering of substitutions follows the chain as printed.

For one assay, the target named is T1, mouse CNTN4 overexpressed on 293F cells. The experiment in a line: FACS, scFv periplasm on mouse CNTN4-overexpressing 293F cells, PE anti-His detection.
Usually EC50 stands for the concentration needed to bring the measured effect to its halfway point. A higher EC50 goes with weaker potency. Turning to B1, the EC50 came out at 33.2 nM and the “Top MFI” value was 2070 MFI.
As for B2, the response was half-maximal at 7.6 nM (EC50) and the “Top MFI” value is 2260 MFI.
For B3 the same measures were 12 nM and 2740 MFI.
With B4, the EC50 amounted to 13.9 nM and the “Top MFI” value came to 2460 MFI.
In the case of B5, the midpoint of the response, the EC50, lay at 45.8 nM and the “Top MFI” value is 1100 MFI.
B6: the EC50 was 8.3 nM and the “Top MFI” value worked out at 2830 MFI.
Consider B7, for which the EC50 was determined as 32.5 nM and the “Top MFI” value is 1860 MFI.
Turning to B8, the EC50 was found to be 72.6 nM and the “Top MFI” value was determined as 2740 MFI.
Turning to B9, the EC50 came to 13.6 nM and the “Top MFI” value is 4110 MFI.
For B10 the same measures were 17.3 nM and 2110 MFI.
In the same order, the values of B11 are 20.1 nM and 2150 MFI.
For B12, the EC50 worked out at 20.2 nM and the “Top MFI” value came to 2840 MFI.
With B13, the EC50 was found to be 10.4 nM and the “Top MFI” value was determined as 4190 MFI.

The next assay concerns the target T2, human CNTN4 overexpressed on cells. The experiment in a line: FACS, scFv periplasm on human CNTN4-overexpressing 293F cells, PE anti-His detection.
Regarding B14, the EC50 worked out at 3.5 nM and the “Top MFI” value was determined as 1460 MFI.
In the same order, the values of B15 are 3.7 nM and 1320 MFI.
For B16 the same measures were 3.2 nM and 1380 MFI.
For the molecule B17, a half-maximal response (EC50) required 3.3 nM and the “Top MFI” value came out at 1240 MFI.
In the same order, the values of B18 are 2.9 nM and 1630 MFI.
On to B19, for which the EC50 worked out at 3.2 nM and the “Top MFI” value came to 1700 MFI.
Take B20: the EC50 worked out at 3.9 nM and the “Top MFI” value stood at 1270 MFI.
For B21 the same measures were 3.7 nM and 1290 MFI.
Take B22: the EC50 was determined as 3 nM and the “Top MFI” value came to 1750 MFI.
For B23, the EC50 was 2 nM and the “Top MFI” value was 1300 MFI.
As for B24, the EC50 turned out to be 4.8 nM and the “Top MFI” value worked out at 1370 MFI.
As for B25, the EC50 came out at 3.1 nM and the “Top MFI” value is 1370 MFI.
Take B26: the EC50 stood at 3.6 nM and the “Top MFI” value was 1470 MFI.
With B27, the EC50 worked out at 4.4 nM and the “Top MFI” value was determined as 1380 MFI.
B28: a half-maximal effect (EC50) was put at 2.8 nM and the “Top MFI” value was found to be 1740 MFI.
In the same order, the values of B29 are 2.7 nM and 1630 MFI.
Regarding B30, it took 3.2 nM to reach a half-maximal effect (EC50) and the “Top MFI” value was 1620 MFI.
On to B31, for which the EC50 is 2.3 nM and the “Top MFI” value stood at 1600 MFI.
B32: the EC50 was determined as 1.7 nM and the “Top MFI” value is 1700 MFI.

Source of the values: patent US20260234228A1 (GENOME, published 2026).
